To fix the notation:
B1: B. subtilis GlmM_(F369) variant lacking the C-terminal domain 4, His-tagged (domain or fragment, UniProt O34824 1-369, looked up)
chain: MGKYFGTDGVRGVANSELTPELAFKVGRFGGYVLTKDKQRPKVLIGRDTRISGHMLEGALVAGLLSIGAEVMRLGVISTPGVSYLTKAMDAEAGVMISASHNPVQDNGIKFFGGDGFKLSDEQEAEIERLMDEPEDKLPRPVGADLGLVNDYFEGGQKYLQFLKQTADEDFTGIHVALDCANGATSSLATHLFADLDADVSTMGTSPNGLNINDGVGSTHPEALSAFVKEKNADLGLAFDGDGDRLIAVDEKGNIVDGDQIMYICSKHLKSEGRLKDDTVVSTVMSNLGFYKALEKEGIKSVQTAVGDRYVVEAMKKDGYNVGGEQSGHLIFLDYNTTGDGLLSAIMLMNTLKATGKPLSELAAEMQKF
notes: GlmM of B. subtilis strain 168, residues Met1 to Phe369 (domains 1 to 3, lacking the flexible C-terminal domain 4); also called truncated GlmM; glmM_(F369)-his; source: E. coli BL21(DE3), purified (Ni-NTA, SEC); also in lysate, mixed with the partner's lysate before Ni-NTA and SEC; not shown: His6, C-terminal, kept
B2: full-length B. subtilis GlmM (phosphoglucosamine mutase), His-tagged (enzyme, UniProt O34824 1-448, looked up)
chain: MGKYFGTDGVRGVANSELTPELAFKVGRFGGYVLTKDKQRPKVLIGRDTRISGHMLEGALVAGLLSIGAEVMRLGVISTPGVSYLTKAMDAEAGVMISASHNPVQDNGIKFFGGDGFKLSDEQEAEIERLMDEPEDKLPRPVGADLGLVNDYFEGGQKYLQFLKQTADEDFTGIHVALDCANGATSSLATHLFADLDADVSTMGTSPNGLNINDGVGSTHPEALSAFVKEKNADLGLAFDGDGDRLIAVDEKGNIVDGDQIMYICSKHLKSEGRLKDDTVVSTVMSNLGFYKALEKEGIKSVQTAVGDRYVVEAMKKDGYNVGGEQSGHLIFLDYNTTGDGLLSAIMLMNTLKATGKPLSELAAEMQKFPQLLVNVRVTDKYKVEENEKVKAVISEVEKEMNGDGRILVRPSGTEPLVRVMAEAKTKELCDEYVNRIVEVVRSEMGLE
notes: GlmM of B. subtilis strain 168, full-length protein; also called glmM-his; phosphoglucomutase GlmM; source: E. coli BL21(DE3), purified (Ni-NTA, SEC); also in lysate, mixed with the partner's lysate before Ni-NTA and SEC; not shown: His6, C-terminal, kept
B3: B. subtilis CdaA catalytic domain (CdaACD), His-tagged (domain or fragment, UniProt Q45589 97-273, looked up)
chain: FFSRSGTPVEEAQQKTIEAITKAINYMAKRRIGALLTIERDTGMGDYIETGIPLNAKVSSELLINIFIPNTPLHDGAVIMKNNEIAAAACYLPLSESPFISKELGTRHRAAVGISEVTDSLTIIVSEETGGVSVAKNGDLHRELTEEALKEMLEAEFKKNTRDTSSNRWYWRGKKNG
notes: C-terminal catalytic (DAC) domain of the c-di-AMP cyclase CdaA of B. subtilis strain 168, starting from amino acid Phe97; The His tag is thrombin cleavable; For MST the protein was labelled with an amine-reactive dye (Monolith Protein Labeling RED-NHS 2nd Generation kit); also called soluble catalytic domain of the c-di-AMP cyclase CdaA; his-cdaACD; source: E. coli BL21(DE3), purified (Ni-NTA, …)
B4: tag-less B. subtilis CdaACD (domain or fragment, UniProt Q45589 97-273, looked up)
chain: B3 chain
notes: C-terminal catalytic (DAC) domain of the c-di-AMP cyclase CdaA of B. subtilis strain 168, starting from amino acid Phe97; also called tag less CdaACD; source: E. coli BL21(DE3), purified (Ni-NTA, SEC), His tag removed with thrombin, SEC; not shown: His6, N-terminal, cleaved

Data set [1] concerns the molecule itself. Description: crystal structure; purified CdaACD:GlmM_(F369) complex at 10 mg/ml, two conditions (complex 1, 3.6 A; complex 2, 4.2 A); three complexes in the asymmetric unit.
Data set [2] deals with the molecule itself. Put plainly: SEC-SAXS; purified proteins or purified complexes (CdaACD 5 mg/ml, GlmM 24 mg/ml, CdaACD:GlmM 24 mg/ml, CdaACD:GlmM_(F369) 10 mg/ml) on a Shodex KW403 column in 30 mM Tris pH 7.5, 150 mM NaCl, with continuous SAXS data collection; envelopes fitted with the crystal structures.
The target of data set [3] is B2. Description: MST; fluorescently labelled (RED-NHS) CdaACD at 25 nM final, unlabelled GlmM 0.78 uM to 800 uM final; 10 mM HEPES pH 7.5, 150 mM NaCl, 0.05% Tween-20; Monolith NT.115, LED power 95%, MST power 80%; five runs. To be noted: both partners purified.
Data set [4] concerns the molecule itself. Put plainly: crystal structure; tag-less CdaACD at 4 mg/ml; 0.1 M sodium cacodylate pH 6.5, 0.1 M ammonium sulfate, 0.3 M sodium formate, 6% PEG 8000, 3% gamma-PGA; dimer in the asymmetric unit; 2.8 A.

This note sets out measurements from paper PMC8573169, “Structural basis for the inhibition of the Bacillus subtilis c-di-AMP cyclase CdaA by the phosphoglucomutase GlmM” (The Journal of Biological Chemistry, 2021).

As for B1, the stoichiometry N (as a rule, a count of units in the complex or per binding partner) in data set [1] was 2.
Consider B2, for which the “stoichiometry N” value in data set [2] amounted to 2.
With B3, the “stoichiometry N” value in data set [1] worked out at 2. Also, the dissociation constant (Kd) (as a rule, the constant that tells how readily two partners part at equilibrium) in data set [3] turned out to be 14.4 ± 0.962 µM.
For the molecule B4, the “stoichiometry N” value in data set [4] came out at 2.
